In article PMC9294072:
Read-outs that look alike come from different tables or passages of the source.

What was measured:
[1] = biological target: human N-terminal acetyltransferase D (hNatD) (human) (UniProt Q86UY6)
[2] = biological target: human N-terminal acetyltransferase D (hNatD) (human) (UniProt Q86UY6); remark: listed apart in the source
[3] = biological target: human N-terminal acetyltransferase D (hNatD) (human) (UniProt Q86UY6); remark: listed apart in the source

| Substance | kcat/Km of Nα-acetylation by hNatD (continuous fluorescence assay) [2] [M⁻¹ s⁻¹] | kcat/Km of Nα-acetylation by hNatD (continuous fluorescence assay) [1] [M⁻¹ s⁻¹] | also measured |
| --- | --- | --- | --- |
| oncohistone H4/H2A pentapeptide R3C (SGCGK) |  |  | kcat/Km of Nα-acetylation by hNatD (MALDI-MS assay) [1]: 1830 M⁻¹ s⁻¹ |
| oncohistone H4/H2A pentapeptide R3Q (from UniProt P62805 2-6) |  | 157 |  |
| oncohistone H4/H2A pentapeptide S1L (from UniProt P62805 2-6) |  |  | kcat/Km of Nα-acetylation by hNatD (continuous fluorescence assay) [3]: 4.17 M⁻¹ s⁻¹ |

The next lines start with results.

| kcat/Km of Nα-acetylation by hNatD (continuous fluorescence assay) [2] [M⁻¹ s⁻¹] | kcat/Km of Nα-acetylation by hNatD (continuous fluorescence assay) [1] [M⁻¹ s⁻¹] | Substance | also measured |
| --- | --- | --- | --- |
| 483 |  | oncohistone H4/H2A pentapeptide G4D (from UniProt P62805 2-6) |  |
|  | 4830 | oncohistone H4/H2A pentapeptide R3H (from UniProt P62805 2-6) |  |
| 3500 |  | oncohistone H4/H2A pentapeptide G4V (from UniProt P62805 2-6) |  |
